Results reported in US20120282646A1 (KOREA RESEARCH INSTITUTE OF BIOSCIENCE AND BIOTECHNOLOGY, published 2012).

Experiments:
[1] = target: T1, Flag-Pyk2-Y402F (mutant Pyk2 in which tyrosine 402 had been mutated to phenylalanine, N-terminal Flag tag) (UniProt Q14289 1-1009); experiment: anti-Flag immunoprecipitation from NK-92 lysate, Western blot with anti-GST
T1 construct: Made from pFlag-Pyk2 by site-directed mutagenesis; also called pFlag-Pyk2-Y402F; not shown: N-terminal Flag tag from the pBICEP-CMV-1 vector
Source text: (§1) From Example <12-4>, it was confirmed that phosphorylated Pyk2 and SOCS2 bind each other. To determine whether phosphorylation of Pyk2 is important in the binding with SOCS2 or not, the present inventors carried out the following experiment. First of all, HA-ubiquitin, pGST-SOCS2, and, pFlag-Pyk2 or pFlag-Pyk2-Y402F were cotransformed into NK-92 cells using Lipofectamin 2000. After 4 hr of transformation, the medium was replaced to a new culture medium, and 24 hr later, cells were lysed. The each cell lysate was allowed to react with anti-Flag antibody. The antigen-antibody complexes were precipitated by incubation at 4° C. for 1 day with G-protein-conjugated agarose. The immunoprecipitated complexes were washed with 1×PBS. Western blot analysis was performed by the same method in Example <2-1> using anti-p-Pyk2^Tyr402 antibody, anti-GST antibody, anti-Flag antibody or anti-HA antibody.

[2] = target: T2, Flag-Pyk2 (proline-rich tyrosine kinase 2 with N-terminal Flag tag, expressed from pFlag-Pyk2) (UniProt Q14289 1-1009); experiment: as above
T2 construct: Overexpressed in cells; not shown: N-terminal Flag tag from the pBICEP-CMV-1 vector
Source text: as §1

[3] = target: T2, Flag-Pyk2 (proline-rich tyrosine kinase …); experiment: anti-Flag immunoprecipitation from 293T lysate, Western blot with anti-GST
Source text: To determine a SOCS2 domain which is important in the binding with Pyk2, the present inventors carried out the following experiment. HA-Ubiquitin, pFlag-Pyk2, and, GST expression vector, pGST-SOCS2, pGST-SOCS2-ΔSH2 or pGST-SOCS2-ΔSOCS were cotransformed into 293T cells using Lipofectamin 2000. After 4 hr of transformation, the medium was replaced to a new culture medium, and 24 hr later, cells were lysed. The each cell lysate was allowed to react with anti-Flag antibody. The antigen-antibody complexes were precipitated by incubation at 4° C. for 1 day with G-protein-conjugated agarose. The immunoprecipitated complexes were washed with 1×PBS. Western blot analysis was performed by the same method in Example <2-1> using anti-GST antibody, anti-Flag antibody, or anti-HA antibody (Santa Cruz, U.S.A.).

T2 sequence (Q14289 whole entry): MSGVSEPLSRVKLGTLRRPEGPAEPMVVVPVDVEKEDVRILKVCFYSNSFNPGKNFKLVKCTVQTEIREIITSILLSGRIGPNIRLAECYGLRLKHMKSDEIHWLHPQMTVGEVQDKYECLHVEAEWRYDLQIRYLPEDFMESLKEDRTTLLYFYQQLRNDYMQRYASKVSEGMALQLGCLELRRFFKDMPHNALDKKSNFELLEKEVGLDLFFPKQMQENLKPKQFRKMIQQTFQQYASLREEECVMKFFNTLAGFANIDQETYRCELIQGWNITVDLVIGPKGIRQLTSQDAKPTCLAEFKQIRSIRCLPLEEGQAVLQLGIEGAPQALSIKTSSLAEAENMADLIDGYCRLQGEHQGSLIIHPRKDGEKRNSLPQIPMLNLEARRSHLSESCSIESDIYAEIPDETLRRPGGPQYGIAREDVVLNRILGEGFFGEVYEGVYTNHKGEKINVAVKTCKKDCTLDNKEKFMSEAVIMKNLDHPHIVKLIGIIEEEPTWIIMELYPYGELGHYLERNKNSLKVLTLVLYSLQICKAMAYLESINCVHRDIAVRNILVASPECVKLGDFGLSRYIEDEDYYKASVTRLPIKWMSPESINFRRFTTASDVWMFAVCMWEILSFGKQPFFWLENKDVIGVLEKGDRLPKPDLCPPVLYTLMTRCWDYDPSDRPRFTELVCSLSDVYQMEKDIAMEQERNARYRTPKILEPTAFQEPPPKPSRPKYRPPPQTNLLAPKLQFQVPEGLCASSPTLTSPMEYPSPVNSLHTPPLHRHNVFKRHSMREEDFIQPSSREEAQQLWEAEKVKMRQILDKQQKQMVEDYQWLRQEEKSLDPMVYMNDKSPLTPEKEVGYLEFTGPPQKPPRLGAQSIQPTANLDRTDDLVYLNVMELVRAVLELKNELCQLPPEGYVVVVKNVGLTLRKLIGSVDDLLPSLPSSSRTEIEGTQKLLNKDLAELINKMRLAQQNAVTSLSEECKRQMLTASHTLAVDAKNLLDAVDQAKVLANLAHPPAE
T1 sequence (Q14289 whole entry Y402F): as the sequence (Q14289 whole entry) above, with Y402F counted along it

Row | Binder | binding result [1] | binding result [2] | binding result [3]
1 | GST-SOCS2 (SOCS2, suppressor of cytokine signaling 2, with N-terminal GST tag, expressed from pGST-SOCS2) (other, UniProt O14508 1-198, looked up, Overexpressed in 293T or NK-92 cells and tested in cell lysate; not shown: N-terminal GST tag from the pEBG vector) MTLRCLEPSGNGGEGTRSQWGTAGSAEEPSPQAARLAKALRELGQTGWYWGSMTVNEAKEKLKEAPEGTFLIRDSSHSDYLLTISVKTSAGPTNLRIEYQDGKFRLDSIICVKSKLKQFDSVVHLIDYYVQMCKDKRTGPEAPRNGTVHLYLTKPLYTSAPSLQHLCRLTINKCTGAIWGLPLPTRLKDYLEEYKFQV | no binding | binds | –
2 | MTLRCLEPSGNGGEGTRSQWGTAGSAEEPSPQAARLAKALRELGQ (other, also called pGST-SOCS2-ΔSH2; not shown: N-terminal GST tag of the pEBG vector and the junction to it) [GST-SOCS2-ΔSH2 (mutant SOCS2 in which the SH2 domain was deleted, N-terminal GST tag)] | – | – | no binding
